# System: Escherichia coli TOP10
# Experiment: shrunken log2 fold change of peptide-encoding DNA abundance (4.5 h post-induction vs induction); higher = less antimicrobial activity (less host growth inhibition)
# Conditions: time post-induction: 4.5 h; library: site-saturation at positions 5, 18, 19, 20
# 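Further: peptides expressed intracellularly from a pBAD plasmid library in pooled LB shake-flask culture, induced with 0.3% L-arabinose, DNA abundance read by NGS, three biological replicates, DESeq2 with apeglm shrinkage.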
row,Sequence,shrunken log2 fold change
1,RRIRHRPPRLPRPRPRPKVPPRP,0.0497
2,RRIRLRPPRLPRPRPRPTEFPRP,0.0447
3,RRIRFRPPRLPRPRPRPMKLPRP,-0.0666
4,RRIRFRPPRLPRPRPRPKQHPRP,-0.176
5,RRIRFRPPRLPRPRPRPPDMPRP,-0.147
6,RRIRFRPPRLPRPRPRPYGRPRP,-0.0926
7,RRIRMRPPRLPRPRPRPHARPRP,0.299
8,RRIRIRPPRLPRPRPRPFEAPRP,-0.151
9,RRIRGRPPRLPRPRPRPWVPPRP,0.0241
10,RRIRHRPPRLPRPRPRPVGGPRP,0.417
11,RRIRKRPPRLPRPRPRPMYYPRP,-0.148
12,RRIRFRPPRLPRPRPRPEQNPRP,0.264
13,RRIRDRPPRLPRPRPRPGDFPRP,-0.017
14,RRIRCRPPRLPRPRPRPFGLPRP,-0.0423
15,RRIRSRPPRLPRPRPRPIYSPRP,0.101
16,RRIRARPPRLPRPRPRPQSGPRP,-0.0719
17,RRIRNRPPRLPRPRPRPFHSPRP,-0.0225
18,RRIRNRPPRLPRPRPRPQNDPRP,-0.966
19,RRIRLRPPRLPRPRPRPNNMPRP,-0.703
20,RRIRSRPPRLPRPRPRPTTRPRP,0.222
21,RRIRWRPPRLPRPRPRPNQCPRP,-0.384
22,RRIRDRPPRLPRPRPRPEPKPRP,1.4
23,RRIRYRPPRLPRPRPRPWRVPRP,0.0112
24,RRIRVRPPRLPRPRPRPCEQPRP,0.211
25,RRIRRRPPRLPRPRPRPYGFPRP,-0.298

row,Sequence,shrunken log2 fold change
1,RRIRFRPPRLPRPRPRPHKVPRP,-0.196
2,RRIRIRPPRLPRPRPRPRSLPRP,-0.036
3,RRIRYRPPRLPRPRPRPYHDPRP,-0.386
4,RRIRLRPPRLPRPRPRPYCIPRP,-0.121
5,RRIRQRPPRLPRPRPRPLKNPRP,-0.237
6,RRIRDRPPRLPRPRPRPVVFPRP,0.457
7,RRIRIRPPRLPRPRPRPMHDPRP,-0.152
8,RRIRIRPPRLPRPRPRPSRGPRP,0.242
9,RRIRSRPPRLPRPRPRPRAPPRP,0.716
10,RRIRDRPPRLPRPRPRPPFEPRP,0.254
11,RRIRFRPPRLPRPRPRPEDGPRP,0.333
12,RRIRRRPPRLPRPRPRPAKYPRP,0.0401
13,RRIRARPPRLPRPRPRPNEDPRP,0.334
14,RRIRCRPPRLPRPRPRPVYAPRP,-0.515
15,RRIRKRPPRLPRPRPRPEYWPRP,-0.0125
16,RRIRNRPPRLPRPRPRPSPIPRP,-0.561
17,RRIRNRPPRLPRPRPRPEQQPRP,0.736
18,RRIRDRPPRLPRPRPRPMYSPRP,0.0101
19,RRIRDRPPRLPRPRPRPEGIPRP,-0.0215
20,RRIRTRPPRLPRPRPRPHKEPRP,-0.0263
21,RRIRQRPPRLPRPRPRPNMEPRP,-0.404
22,RRIRWRPPRLPRPRPRPWFAPRP,0.135
23,RRIRYRPPRLPRPRPRPHEYPRP,-0.354
24,RRIRNRPPRLPRPRPRPTCCPRP,-0.0383
25,RRIRCRPPRLPRPRPRPHIGPRP,0.000633

row,Sequence,shrunken log2 fold change
1,RRIRSRPPRLPRPRPRPLFCPRP,-0.146
2,RRIRERPPRLPRPRPRPGWRPRP,0.0971
3,RRIRERPPRLPRPRPRPFMKPRP,-0.0971
4,RRIRKRPPRLPRPRPRPIREPRP,0.057
5,RRIRERPPRLPRPRPRPADGPRP,-0.0752
6,RRIRERPPRLPRPRPRPCKAPRP,-0.0137
7,RRIRPRPPRLPRPRPRPQNVPRP,-0.212
8,RRIRWRPPRLPRPRPRPQMLPRP,0.313
9,RRIRCRPPRLPRPRPRPTCMPRP,0.173
10,RRIRLRPPRLPRPRPRPIWSPRP,-0.256
11,RRIRTRPPRLPRPRPRPNMIPRP,-0.277
12,RRIRRRPPRLPRPRPRPSTFPRP,-0.02
13,RRIRVRPPRLPRPRPRPDTYPRP,-0.995
14,RRIRSRPPRLPRPRPRPTSAPRP,0.321
15,RRIRTRPPRLPRPRPRPDKVPRP,-0.0275
16,RRIRCRPPRLPRPRPRPTNDPRP,-0.218
17,RRIRYRPPRLPRPRPRPFGQPRP,-0.219
18,RRIRSRPPRLPRPRPRPPDFPRP,0.29
19,RRIRVRPPRLPRPRPRPRFEPRP,0.376
20,RRIRDRPPRLPRPRPRPWDAPRP,0.207
21,RRIRGRPPRLPRPRPRPGWGPRP,0.73
22,RRIRPRPPRLPRPRPRPEIHPRP,-0.536
23,RRIRGRPPRLPRPRPRPAIAPRP,0.91
24,RRIRLRPPRLPRPRPRPDSWPRP,-0.139
25,RRIRHRPPRLPRPRPRPCGYPRP,-0.0081

row,Sequence,shrunken log2 fold change
1,RRIRPRPPRLPRPRPRPALVPRP,0.181
2,RRIRYRPPRLPRPRPRPDSMPRP,0.00804
3,RRIRPRPPRLPRPRPRPLANPRP,-0.0209
4,RRIRDRPPRLPRPRPRPFSEPRP,-0.0447
5,RRIRIRPPRLPRPRPRPVIDPRP,-0.0443
6,RRIRGRPPRLPRPRPRPIEPPRP,0.491
7,RRIRHRPPRLPRPRPRPFEMPRP,-0.505
8,RRIRVRPPRLPRPRPRPRVMPRP,0.188
9,RRIRDRPPRLPRPRPRPFMTPRP,-0.185
10,RRIRQRPPRLPRPRPRPQGAPRP,-0.0289
11,RRIRYRPPRLPRPRPRPYSLPRP,-0.335
12,RRIRSRPPRLPRPRPRPSCHPRP,-0.245
13,RRIRQRPPRLPRPRPRPRPEPRP,0.646
14,RRIRPRPPRLPRPRPRPPTDPRP,0.184
15,RRIRKRPPRLPRPRPRPEREPRP,0.671
16,RRIRTRPPRLPRPRPRPPTFPRP,-0.203
17,RRIRYRPPRLPRPRPRPRDNPRP,-0.712
18,RRIRPRPPRLPRPRPRPLYFPRP,-0.602
19,RRIRGRPPRLPRPRPRPCRCPRP,0.107
20,RRIRDRPPRLPRPRPRPLKQPRP,0.681
21,RRIRFRPPRLPRPRPRPMNRPRP,-0.0364
22,RRIRGRPPRLPRPRPRPPYIPRP,-0.271
23,RRIRNRPPRLPRPRPRPIWLPRP,0.0648
24,RRIRGRPPRLPRPRPRPYCVPRP,-0.237
25,RRIRTRPPRLPRPRPRPSWRPRP,0.153

row,Sequence,shrunken log2 fold change
1,RRIRCRPPRLPRPRPRPKTWPRP,0.0688
2,RRIRSRPPRLPRPRPRPFDIPRP,-0.639
3,RRIRARPPRLPRPRPRPFIGPRP,-0.457
4,RRIRKRPPRLPRPRPRPREVPRP,0.538
5,RRIRSRPPRLPRPRPRPQSTPRP,-0.24
6,RRIRERPPRLPRPRPRPQSSPRP,-0.533
7,RRIRSRPPRLPRPRPRPSSNPRP,-0.872
8,RRIRRRPPRLPRPRPRPMPFPRP,-0.0201
9,RRIRLRPPRLPRPRPRPVGTPRP,0.00938
10,RRIRWRPPRLPRPRPRPDCEPRP,2.54
11,RRIRGRPPRLPRPRPRPCWTPRP,0.28
12,RRIRPRPPRLPRPRPRPRLRPRP,0.458
13,RRIRTRPPRLPRPRPRPKAHPRP,0.182
14,RRIRNRPPRLPRPRPRPHQCPRP,-0.0318
15,RRIRRRPPRLPRPRPRPILPPRP,0.177
16,RRIRMRPPRLPRPRPRPICVPRP,0.196
17,RRIRHRPPRLPRPRPRPYFLPRP,-0.996
18,RRIRHRPPRLPRPRPRPRSIPRP,-0.374
19,RRIRFRPPRLPRPRPRPAGFPRP,0.0553
20,RRIRKRPPRLPRPRPRPFPIPRP,-0.0405
21,RRIRQRPPRLPRPRPRPDVDPRP,-0.152
22,RRIRYRPPRLPRPRPRPMSKPRP,3.29
23,RRIRERPPRLPRPRPRPFNKPRP,-0.383
24,RRIRDRPPRLPRPRPRPWWHPRP,0.133
25,RRIRSRPPRLPRPRPRPSWHPRP,-0.206

row,Sequence,shrunken log2 fold change
1,RRIRSRPPRLPRPRPRPKCLPRP,0.0157
2,RRIRIRPPRLPRPRPRPEDNPRP,-0.138
3,RRIRKRPPRLPRPRPRPCGDPRP,0.466
4,RRIRERPPRLPRPRPRPHWVPRP,0.172
5,RRIRPRPPRLPRPRPRPYPEPRP,-0.421
6,RRIRWRPPRLPRPRPRPWPCPRP,0.0272
7,RRIRERPPRLPRPRPRPFAFPRP,-0.0942
8,RRIRWRPPRLPRPRPRPAYEPRP,-0.0308
9,RRIRRRPPRLPRPRPRPCNQPRP,-0.0711
10,RRIRQRPPRLPRPRPRPHIRPRP,-0.209
11,RRIRMRPPRLPRPRPRPYDNPRP,0.213
12,RRIRLRPPRLPRPRPRPKEEPRP,-0.0533
13,RRIRTRPPRLPRPRPRPSIAPRP,-0.281
14,RRIRLRPPRLPRPRPRPFLKPRP,-0.0488
15,RRIRTRPPRLPRPRPRPICKPRP,-0.0914
16,RRIRRRPPRLPRPRPRPCWRPRP,0.00446
17,RRIRSRPPRLPRPRPRPLIMPRP,-0.47
18,RRIRFRPPRLPRPRPRPHRAPRP,-0.0573
19,RRIRIRPPRLPRPRPRPEKSPRP,0.028
20,RRIRSRPPRLPRPRPRPGTNPRP,-0.188
21,RRIRNRPPRLPRPRPRPETTPRP,0.0795
22,RRIRPRPPRLPRPRPRPSRCPRP,0.093
23,RRIRMRPPRLPRPRPRPLFCPRP,0.188
24,RRIRDRPPRLPRPRPRPLFDPRP,0.393
25,RRIRGRPPRLPRPRPRPTASPRP,1.49

# Source: the supplement of paper PMC9112550, “Optimization of the antimicrobial peptide Bac7 by deep mutational scanning” (BMC Biology, 2022)
